Laboratory results published in article PMC11272584 (Nature Metabolism, 2024).

T1: GIPR I378M (Homo sapiens, UniProt P48546, I378M)
T1 construct: host or cells: HEK293
T1 sequence (P48546 22-466 I378M): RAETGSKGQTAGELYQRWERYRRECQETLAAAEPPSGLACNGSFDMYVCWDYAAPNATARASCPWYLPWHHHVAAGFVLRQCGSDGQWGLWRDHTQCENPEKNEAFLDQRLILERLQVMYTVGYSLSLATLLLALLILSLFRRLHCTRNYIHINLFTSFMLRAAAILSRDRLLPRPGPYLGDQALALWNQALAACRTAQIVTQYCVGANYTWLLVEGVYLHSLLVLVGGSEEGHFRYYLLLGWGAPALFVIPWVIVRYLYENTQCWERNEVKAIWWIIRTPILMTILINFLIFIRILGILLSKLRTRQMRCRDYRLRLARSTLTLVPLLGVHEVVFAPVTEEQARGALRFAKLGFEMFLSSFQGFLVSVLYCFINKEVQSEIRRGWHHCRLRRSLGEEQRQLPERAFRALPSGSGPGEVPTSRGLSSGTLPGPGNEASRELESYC

T2: GIPR V399M (Homo sapiens, UniProt P48546, V399M)
T2 construct: host or cells: HEK293
T2 sequence (P48546 22-466 V399M): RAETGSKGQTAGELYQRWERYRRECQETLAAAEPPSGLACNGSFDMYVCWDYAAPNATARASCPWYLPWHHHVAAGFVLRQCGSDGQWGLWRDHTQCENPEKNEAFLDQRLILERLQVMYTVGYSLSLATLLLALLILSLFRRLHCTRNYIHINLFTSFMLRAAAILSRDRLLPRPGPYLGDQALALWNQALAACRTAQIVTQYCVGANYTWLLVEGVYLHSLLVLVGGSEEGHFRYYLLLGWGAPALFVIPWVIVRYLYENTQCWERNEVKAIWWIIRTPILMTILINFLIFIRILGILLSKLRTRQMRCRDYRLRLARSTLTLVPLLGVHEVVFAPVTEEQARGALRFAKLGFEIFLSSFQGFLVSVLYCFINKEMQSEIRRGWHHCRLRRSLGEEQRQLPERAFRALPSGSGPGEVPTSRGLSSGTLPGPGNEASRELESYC

T3: GIPR S382T (Homo sapiens, UniProt P48546, S382T)
T3 construct: host or cells: HEK293
T3 sequence (P48546 22-466 S382T): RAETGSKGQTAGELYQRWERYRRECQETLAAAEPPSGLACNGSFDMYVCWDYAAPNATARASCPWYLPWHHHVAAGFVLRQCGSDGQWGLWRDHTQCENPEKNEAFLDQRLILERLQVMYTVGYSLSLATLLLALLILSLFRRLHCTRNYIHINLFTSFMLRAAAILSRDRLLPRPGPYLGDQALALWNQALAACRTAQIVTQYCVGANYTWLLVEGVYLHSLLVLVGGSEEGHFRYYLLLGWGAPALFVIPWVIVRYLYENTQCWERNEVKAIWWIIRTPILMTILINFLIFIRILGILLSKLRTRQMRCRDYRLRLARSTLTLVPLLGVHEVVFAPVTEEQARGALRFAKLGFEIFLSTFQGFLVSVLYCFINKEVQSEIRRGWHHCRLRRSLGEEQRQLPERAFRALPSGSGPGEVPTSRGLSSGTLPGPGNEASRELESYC

T4: GIPR S382Y (Homo sapiens, UniProt P48546, S382Y)
T4 construct: host or cells: HEK293
T4 sequence (P48546 22-466 S382Y): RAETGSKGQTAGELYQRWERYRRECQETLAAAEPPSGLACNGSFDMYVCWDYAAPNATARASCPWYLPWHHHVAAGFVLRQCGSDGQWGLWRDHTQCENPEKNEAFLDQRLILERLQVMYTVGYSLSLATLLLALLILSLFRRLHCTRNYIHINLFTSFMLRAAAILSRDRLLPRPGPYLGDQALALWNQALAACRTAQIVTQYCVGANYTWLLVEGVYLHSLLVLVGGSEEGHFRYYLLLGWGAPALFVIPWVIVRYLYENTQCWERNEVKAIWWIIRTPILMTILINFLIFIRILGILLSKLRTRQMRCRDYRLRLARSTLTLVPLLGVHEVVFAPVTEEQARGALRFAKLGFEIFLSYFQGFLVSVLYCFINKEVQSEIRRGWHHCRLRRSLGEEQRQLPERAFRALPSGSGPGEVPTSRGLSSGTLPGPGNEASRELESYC

T5: GIPR K397N (Homo sapiens, UniProt P48546, K397N)
T5 construct: host or cells: HEK293
T5 sequence (P48546 22-466 K397N): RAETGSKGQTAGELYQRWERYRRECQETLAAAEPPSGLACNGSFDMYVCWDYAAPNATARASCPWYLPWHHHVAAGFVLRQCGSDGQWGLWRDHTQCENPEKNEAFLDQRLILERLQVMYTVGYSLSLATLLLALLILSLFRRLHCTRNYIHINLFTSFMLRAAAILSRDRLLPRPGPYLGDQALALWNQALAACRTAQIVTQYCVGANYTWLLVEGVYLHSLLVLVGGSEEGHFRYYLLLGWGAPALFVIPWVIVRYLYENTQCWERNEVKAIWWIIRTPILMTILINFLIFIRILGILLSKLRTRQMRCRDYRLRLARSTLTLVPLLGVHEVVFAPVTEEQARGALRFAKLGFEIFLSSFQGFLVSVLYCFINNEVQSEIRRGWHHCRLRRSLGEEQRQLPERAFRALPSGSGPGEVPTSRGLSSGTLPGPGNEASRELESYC


How the values were obtained:
GIPR I378M = target: T1, GIPR I378M; assay: cAMP accumulation; type: cell-based
Description: (§1) HEK293 (CRL-1573, American Type Culture Collection) and β-arrestin 1/2 knockout cells, generated from HEK293A[48], were used for cAMP measurement, homologues competition binding and β-arrestin 2 recruitment. […] Both cell lines were cultured at 5% CO2 at 37 °C in Roswell Park Memorial Institute GlutaMAX-I supplemented with 10% fetal bovine serum, 180 units ml^−1 penicillin, and 45 g ml^−1 streptomycin. For the cAMP and binding experiments, cells were transfected with the calcium phosphate precipitation method[49].
(§2) cAMP production was measured with the DiscoverX Hithunter cAMP assay according to the manufacturer’s protocol (DiscoverX). […] On the day of the assay, the cells were washed twice with HEPES-buffered saline (HBS) and incubated with HBS and 1 mM 3-isobutyl-1-methylxanthine for 30 min at 37 °C. […] After the incubation, the assay medium was removed from the plate and the cells were washed with 30 µl PBS and treated with 40 µl enzyme donor–lysis buffer–chemiluminescent reagents and 10 µl cAMP antibodies for 60 min before 40 µl enzyme acceptor solution added. After a 3-h incubation on a shaking table in the dark, the cAMP accumulation was measured based on luminescence with a Perkin Elmer EnVision 2104 Multilabel Microplate Reader. […]

GIPR variants (groups) [1] = assay: cAMP accumulation; type: cell-based, human; conditions: for In vitro groups (cAMP): cAMP part of the in vitro group; for percentage_camp: cAMP production compared with WT; for Beta, cAMP: in vitro cAMP production per GIPR variant
Description: HEK293 (CRL-1573, American Type Culture Collection) and β-arrestin 1/2 knockout cells, generated from HEK293A[48], were used for cAMP measurement, homologues competition binding and β-arrestin 2 recruitment. For the internalization assay, endosomal signalling and basal receptor localization experiments, HEK293A (R70507, Thermo Fisher) cells were used. Both cell lines were cultured at 5% CO2 at 37 °C in Roswell Park Memorial Institute GlutaMAX-I supplemented with 10% fetal bovine serum, 180 units ml^−1 penicillin, and 45 g ml^−1 streptomycin. For the cAMP and binding experiments, cells were transfected with the calcium phosphate precipitation method[49]. The polyethyleneimine (PEI) transfection method was used for the β-arrestin 2 recruitment assays[50], endosomal signalling and basal receptor localization assays, while the lipofectamine transfection method was used for the internalization assay.
cAMP production was measured with the DiscoverX Hithunter cAMP assay according to the manufacturer’s protocol (DiscoverX). […] On the day of the assay, the cells were washed twice with HEPES-buffered saline (HBS) and incubated with HBS and 1 mM 3-isobutyl-1-methylxanthine for 30 min at 37 °C. […] After the incubation, the assay medium was removed from the plate and the cells were washed with 30 µl PBS and treated with 40 µl enzyme donor–lysis buffer–chemiluminescent reagents and 10 µl cAMP antibodies for 60 min before 40 µl enzyme acceptor solution added. After a 3-h incubation on a shaking table in the dark, the cAMP accumulation was measured based on luminescence with a Perkin Elmer EnVision 2104 Multilabel Microplate Reader.
For cAMP accumulation, the data were fitted as a sigmoidal curve with a Hill slope of 1; for homologous competition binding, the data were fitted as a sigmoidal curve with a Hill slope of −1.

GIPR variants (groups) [2] = assay: β-arrestin 2 recruitment (BRET); conditions: for In vitro groups (β-arrestin): arr part of the in vitro group; for Beta, Barr: in vitro β-arrestin recruitment per GIPR variant;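 on all read-outs here: BRET readout of β-arrestin 2 recruitment in transiently transfected HEK293 cells expressing WT GIPR or a GIPR variant plus GPCR kinase 2, Rluc8 donor and citrine acceptor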
GIPR V399M = target: T2, GIPR V399M; assay: cAMP accumulation; type: cell-based
Description: (§3) HEK293 (CRL-1573, American Type Culture Collection) and β-arrestin 1/2 knockout cells, generated from HEK293A[48], were used for cAMP measurement, homologues competition binding and β-arrestin 2 recruitment. […] Both cell lines were cultured at 5% CO2 at 37 °C in Roswell Park Memorial Institute GlutaMAX-I supplemented with 10% fetal bovine serum, 180 units ml^−1 penicillin, and 45 g ml^−1 streptomycin. For the cAMP and binding experiments, cells were transfected with the calcium phosphate precipitation method[49]. The polyethyleneimine (PEI) transfection method was used for the β-arrestin 2 recruitment assays[50], endosomal signalling and basal receptor localization assays, while the lipofectamine transfection method was used for the internalization assay.
(§4) cAMP production was measured with the DiscoverX Hithunter cAMP assay according to the manufacturer’s protocol (DiscoverX). […] On the day of the assay, the cells were washed twice with HEPES-buffered saline (HBS) and incubated with HBS and 1 mM 3-isobutyl-1-methylxanthine for 30 min at 37 °C. […] After a 3-h incubation on a shaking table in the dark, the cAMP accumulation was measured based on luminescence with a Perkin Elmer EnVision 2104 Multilabel Microplate Reader. […]

GIPR S382T = target: T3, GIPR S382T; assay: cAMP accumulation; type: cell-based
Description: as §1, §2

GIPR S382Y = target: T4, GIPR S382Y; assay: cAMP accumulation; type: cell-based
Description: as §3, §4

GIPR K397N = target: T5, GIPR K397N; assay: cAMP accumulation; type: cell-based
Description: as §3, §4

| Molecule | Efficacy at 100pmol (cAMP) (GIPR I378M) | In vitro groups (cAMP) (GIPR variants (groups) [1]) | percentage_camp (GIPR variants (groups) [1]) [% cAMP] | Beta, cAMP (GIPR variants (groups) [1]) | In vitro groups (β-arrestin) (GIPR variants (groups) [2]) | Beta, Barr (GIPR variants (groups) [2]) | Efficacy at 100pmol (cAMP) (GIPR V399M) | Efficacy at 100pmol (cAMP) (GIPR S382T) | Efficacy at 100pmol (cAMP) (GIPR S382Y) | Efficacy at 100pmol (cAMP) (GIPR K397N) |
| --- | --- | --- | --- | --- | --- | --- | --- | --- | --- | --- |
| I378M (protein) RAETGSKGQTAGELYQRWERYRRECQETLAAAEPPSGLACNGSFDMYVCWDYAAPNATARASCPWYLPWHHHVAAGFVLRQCGSDGQWGLWRDHTQCENPEKNEAFLDQRLILERLQVMYTVGYSLSLATLLLALLILSLFRRLHCTRNYIHINLFTSFMLRAAAILSRDRLLPRPGPYLGDQALALWNQALAACRTAQIVTQYCVGANYTWLLVEGVYLHSLLVLVGGSEEGHFRYYLLLGWGAPALFVIPWVIVRYLYENTQCWERNEVKAIWWIIRTPILMTILINFLIFIRILGILLSKLRTRQMRCRDYRLRLARSTLTLVPLLGVHEVVFAPVTEEQARGALRFAKLGFEMFLSSFQGFLVSVLYCFINKEVQSEIRRGWHHCRLRRSLGEEQRQLPERAFRALPSGSGPGEVPTSRGLSSGTLPGPGNEASRELESYC | 0.8167 | WT-like_camp | >50 | 0.8167 | GoF_arr | 1.357 |  |  |  |  |
| V399M (protein) RAETGSKGQTAGELYQRWERYRRECQETLAAAEPPSGLACNGSFDMYVCWDYAAPNATARASCPWYLPWHHHVAAGFVLRQCGSDGQWGLWRDHTQCENPEKNEAFLDQRLILERLQVMYTVGYSLSLATLLLALLILSLFRRLHCTRNYIHINLFTSFMLRAAAILSRDRLLPRPGPYLGDQALALWNQALAACRTAQIVTQYCVGANYTWLLVEGVYLHSLLVLVGGSEEGHFRYYLLLGWGAPALFVIPWVIVRYLYENTQCWERNEVKAIWWIIRTPILMTILINFLIFIRILGILLSKLRTRQMRCRDYRLRLARSTLTLVPLLGVHEVVFAPVTEEQARGALRFAKLGFEIFLSSFQGFLVSVLYCFINKEMQSEIRRGWHHCRLRRSLGEEQRQLPERAFRALPSGSGPGEVPTSRGLSSGTLPGPGNEASRELESYC |  | LoF_camp | <50 | 0.2386 | LoF_arr | 0 | 0.2386 |  |  |  |
| S382T (protein) RAETGSKGQTAGELYQRWERYRRECQETLAAAEPPSGLACNGSFDMYVCWDYAAPNATARASCPWYLPWHHHVAAGFVLRQCGSDGQWGLWRDHTQCENPEKNEAFLDQRLILERLQVMYTVGYSLSLATLLLALLILSLFRRLHCTRNYIHINLFTSFMLRAAAILSRDRLLPRPGPYLGDQALALWNQALAACRTAQIVTQYCVGANYTWLLVEGVYLHSLLVLVGGSEEGHFRYYLLLGWGAPALFVIPWVIVRYLYENTQCWERNEVKAIWWIIRTPILMTILINFLIFIRILGILLSKLRTRQMRCRDYRLRLARSTLTLVPLLGVHEVVFAPVTEEQARGALRFAKLGFEIFLSTFQGFLVSVLYCFINKEVQSEIRRGWHHCRLRRSLGEEQRQLPERAFRALPSGSGPGEVPTSRGLSSGTLPGPGNEASRELESYC |  | LoF_camp | <50 | 0.1068 | LoF_arr | 0.05782 |  | 0.1068 |  |  |
| S382Y (protein) RAETGSKGQTAGELYQRWERYRRECQETLAAAEPPSGLACNGSFDMYVCWDYAAPNATARASCPWYLPWHHHVAAGFVLRQCGSDGQWGLWRDHTQCENPEKNEAFLDQRLILERLQVMYTVGYSLSLATLLLALLILSLFRRLHCTRNYIHINLFTSFMLRAAAILSRDRLLPRPGPYLGDQALALWNQALAACRTAQIVTQYCVGANYTWLLVEGVYLHSLLVLVGGSEEGHFRYYLLLGWGAPALFVIPWVIVRYLYENTQCWERNEVKAIWWIIRTPILMTILINFLIFIRILGILLSKLRTRQMRCRDYRLRLARSTLTLVPLLGVHEVVFAPVTEEQARGALRFAKLGFEIFLSYFQGFLVSVLYCFINKEVQSEIRRGWHHCRLRRSLGEEQRQLPERAFRALPSGSGPGEVPTSRGLSSGTLPGPGNEASRELESYC |  | LoF_camp | <50 | 0.008271 | LoF_arr | 0 |  |  | 0.008271 |  |
| K397N (protein) RAETGSKGQTAGELYQRWERYRRECQETLAAAEPPSGLACNGSFDMYVCWDYAAPNATARASCPWYLPWHHHVAAGFVLRQCGSDGQWGLWRDHTQCENPEKNEAFLDQRLILERLQVMYTVGYSLSLATLLLALLILSLFRRLHCTRNYIHINLFTSFMLRAAAILSRDRLLPRPGPYLGDQALALWNQALAACRTAQIVTQYCVGANYTWLLVEGVYLHSLLVLVGGSEEGHFRYYLLLGWGAPALFVIPWVIVRYLYENTQCWERNEVKAIWWIIRTPILMTILINFLIFIRILGILLSKLRTRQMRCRDYRLRLARSTLTLVPLLGVHEVVFAPVTEEQARGALRFAKLGFEIFLSSFQGFLVSVLYCFINNEVQSEIRRGWHHCRLRRSLGEEQRQLPERAFRALPSGSGPGEVPTSRGLSSGTLPGPGNEASRELESYC |  | WT-like_camp | >50 | 0.5221 | LoF_arr | 0.3822 |  |  |  | 0.5221 |
